What was measured:
Settings in all cases: both partners purified
[1] = biological target: T1, human toll-like receptor 4, His-tagged (human, UniProt O00206 24-631); test: SPR; IAsys plus resonant mirror biosensor; TLR4-His immobilised; 37 °C; 20 mM PBS, 25 mM NaCl
T1 construct: toll-like receptor 4, human; called the extracellular domain of TLR4 in the results; described as a 100 kDa protein with isoelectric point 5.88; Coupled covalently to the carboxylate cuvette by EDC/NHS 'via the N-terminus of the poly-His tail'; also called TLR4; TLR4-His; source: pEF-BOS TLR4 plasmid, transfected in HCT-116 cell line (author contributions)

[2] = biological target: T1, human toll-like receptor 4, His-tagged; test: SPR; IAsys plus evanescent wave/resonant mirror biosensor (the paper calls it surface plasmon resonance); TLR4-His covalently immobilised on carboxylate cuvette; 37 °C; PBS pH 7.4 with 140 mM NaCl; mono-exponential fits
[3] = biological target: T1, human toll-like receptor 4, His-tagged; test: SPR; IAsys plus resonant mirror biosensor; TLR4-His immobilised; 37 °C; 20 mM PBS, 50 mM NaCl
[4] = biological target: T1, human toll-like receptor 4, His-tagged; test: SPR; IAsys plus evanescent wave/resonant mirror biosensor (the paper calls it surface plasmon resonance); TLR4-His covalently immobilised on carboxylate cuvette; 37 °C; PBS pH 7.4 with 140 mM NaCl; mono-exponential fits; remark: listed apart in the source
[5] = biological target: T1, human toll-like receptor 4, His-tagged; test: SPR; IAsys plus resonant mirror biosensor; TLR4-His immobilised; 37 °C; 20 mM PBS, no NaCl
[6] = biological target: T1, human toll-like receptor 4, His-tagged; test: SPR; IAsys plus evanescent wave/resonant mirror biosensor (the paper calls it surface plasmon resonance); TLR4-His covalently immobilised on carboxylate cuvette; 37 °C; PBS pH 7.4 with 140 mM NaCl; mono-exponential fits; remark: listed apart in the source

T1 sequence (O00206 24-631): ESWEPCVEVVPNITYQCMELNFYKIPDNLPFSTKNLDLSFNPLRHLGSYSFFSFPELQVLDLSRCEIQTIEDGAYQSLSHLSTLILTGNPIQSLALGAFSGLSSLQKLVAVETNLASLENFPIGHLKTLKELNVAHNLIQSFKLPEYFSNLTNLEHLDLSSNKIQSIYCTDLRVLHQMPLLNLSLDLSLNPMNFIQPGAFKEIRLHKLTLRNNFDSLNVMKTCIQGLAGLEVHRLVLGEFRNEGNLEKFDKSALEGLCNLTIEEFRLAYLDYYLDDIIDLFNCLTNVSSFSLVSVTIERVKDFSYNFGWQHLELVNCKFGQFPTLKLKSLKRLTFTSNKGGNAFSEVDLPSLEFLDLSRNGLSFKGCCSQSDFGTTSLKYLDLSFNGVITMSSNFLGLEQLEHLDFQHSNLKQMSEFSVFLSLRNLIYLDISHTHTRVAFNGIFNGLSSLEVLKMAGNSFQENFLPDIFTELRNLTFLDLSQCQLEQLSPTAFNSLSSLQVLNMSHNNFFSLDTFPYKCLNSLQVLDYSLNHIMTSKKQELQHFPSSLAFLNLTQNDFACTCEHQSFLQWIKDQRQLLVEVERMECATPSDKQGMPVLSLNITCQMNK

Kd [1] [nM]	koff [1] [s⁻¹]	kon [1] [M⁻¹ s⁻¹]	Kd [2] [nM]	koff [2] [s⁻¹]	kon [2] [M⁻¹ s⁻¹]	Kd [3] [nM]	koff [3] [s⁻¹]	kon [3] [M⁻¹ s⁻¹]	Kd [4] [nM]	stoichiometry N [4]	Kd [5] [nM]	koff [5] [s⁻¹]	kon [5] [M⁻¹ s⁻¹]	Kd [6] [nM]	koff [6] [s⁻¹]	kon [6] [M⁻¹ s⁻¹]	Binder
10	0.0004	39000	61	0.0025	41000	18	0.0007	40000	36	1	2.3	0.0001	43000				wheat amylase trypsin inhibitor CM3 (natural protein, UniProt P17314 26-168, looked up, also called ATI; wheat ATI CM3) SGSCVPGVAFRTNLLPHCRDYVLQQTCGTFTPGSKLPEWMTSASIYSPGKPYLAKLYCCQELAEISQQCRCEALRYFIALPVPSQPVDPRSGNVGESGLIDLPGCPREMQWDFVRLLVAPGQCNLATIHNVRYCPAVEQPLWI
										1				1400	0.005	3620	RSGNVGESGLI (stretch of wheat ATI CM3; also called straight peptide; StrP; source: synthetic peptide) [RSGNVGESGLI oligopeptide derived from wheat ATI CM3]

Source: publication PMC5640651, “Interfering with the high-affinity interaction between wheat amylase trypsin inhibitor CM3 and toll-like receptor 4: in silico and biosensor-based studies” (Scientific Reports, 2017)
